From publication PMC3355152, “Crystal Structures of Lsm3, Lsm4 and Lsm5/6/7 from Schizosaccharomyces pombe” (PLoS ONE, 2012)

B1: SpLsm3 from the co-expressed SpLsm2/3 sample (natural protein)
chain: not shown
modifications: SeMet-substituted in the crystal
notes: Lsm3 (Sm-like protein 3), S. pombe, full length; inserted into MCS2 of pETDuet-1, no tag told; The SpLsm3 crystals grew from the SeMet-SpLsm2/3 sample; Residues 1-8 and 56-69 are disordered in the model; also called SeMet-SpLsm3; source: E. coli B834 (DE3), co-expressed with His6-SpLsm2 (pETDuet-1 MCS2), purified (TALON Co2+, Superdex-200)
B2: SpLsm4N (C-terminal truncated Lsm4 from S. pombe, residues 1-91) (domain or fragment, UniProt O14352 1-91, looked up)
chain: MLPLTLLNATQGRPILVELKNGETFNGHLENCDNYMNLTLREVIRTMPDGDKFFRLPECYIRGNNIKYLRIQDEVLSQVAKQQAQQRENRG
modifications: SeMet-substituted in the crystal
notes: Lsm4 (Sm-like protein 4), S. pombe, residues 1-91; printed monomer mass 12204 Da; No cleavage of the His6 tag is told for this construct; The model covers residues 12-71; also called N-terminal region of Lsm4; source: E. coli B834 (DE3), purified (TALON Co2+, Superdex-75)
B3: SpLsm3 (Lsm3 from S. pombe, expressed alone) (natural protein)
chain: not shown
notes: Lsm3 (Sm-like protein 3), S. pombe, full length; modified pETDuet-1 MCS1 with N-terminal His6-tag followed by a PreScission site; printed monomer mass 11087 Da; source: E. coli B834 (DE3), purified (TALON Co2+, PreScission cleavage, second TALON, Superdex-200); not shown: His6, N-terminal, cleaved
B4: SpLsm5/6/7 sub-complex (trimeric complex of SpLsm5, SpLsm6 and SpLsm7) (complex)
chain 1: not shown
chain 2: MDSSPNEFLNKVIGKKVLIRLSSGVDYKGILSCLDGYMNLALERTEEYVNGKKTNVYGDAFIRGNNVLYVSALDD
chain 3: MSSLQKRPGPGNSSQPTERPRKESILDLSRYQDQRIQATFTGGRQITGILKGFDQLMNLVLDDVEEQLRNPEDGKLTGAIRKLGLVVVRGTTLVLIAPMDGSEEIPNPFVQAE
modifications: SeMet-substituted in the crystal | SeMet-substituted in the crystal | SeMet-substituted in the crystal
notes: Lsm5 (Sm-like protein 5), S. pombe, full length; Lsm6 (Sm-like protein 6), S. pombe, full length; Lsm7 (Sm-like protein 7), S. pombe, full length; One copy of each subunit (printed mass of this unit 31240 Da); two such trimers form the hexameric ring; source: E. coli B834 (DE3), co-expressed (pETDuet-1 and pACYCDuet-1), purified (TALON Co2+, Superdex-200); copies: 1 + 1 + 1
B5: ScLsm3 (Lsm3 from S. cerevisiae) (natural protein)
chain: METPLDLLKLNLDERVYIKLRGARTLVGTLQAFDSHCNIVLSDAVETIYQLNNEELSESERRCEMVFIRGDTVTLISTPSEDDDGAVEI
notes: Lsm3 (Sm-like protein 3), Saccharomyces cerevisiae; the Lsm3 gene amplified from genomic DNA; printed monomer mass 10450 Da; source: E. coli B834 (DE3), purified (TALON Co2+, PreScission cleavage, second TALON, Superdex-200); not shown: His6, N-terminal, cleaved

Tests used:
[1] = target: the molecule itself; test: crystal structure; SeMet crystals grown from the SeMet-SpLsm2/3 sample; hanging drop, 15°C, 0.1 M Mes pH 6.5, 0.2 M MgCl2, 40% MPD; 2.7 Å, SAD; only SpLsm3 in the crystal
[2] = target: the molecule itself; test: AUC; sedimentation equilibrium, 20°C, 20 mM Hepes pH 7.5, 500 mM NaCl; 15,000, 18,000, 25,000 rpm; 0.3-1.5 mg/ml; fitted to a monomer-trimer model (HETEROANALYSIS); monomer to trimer
[3] = target: the molecule itself; test: AUC; sedimentation velocity, 42000 r.p.m., 20°C, 20 mM Hepes pH 7.5, 100 mM NaCl; 0.75, 1.0 and 1.5 mg/ml; c(S) and c(M) distributions (SEDFIT)

Protein	stoichiometry N [3]	further results
B1	–	stoichiometry N [1]: 7
B2	–	stoichiometry N [2]: 3
B3	7	–
B4	2	–
B5	8	–
